From patent publication US20230106131A1 come the findings set out here.

For test [1], the target named is GST-MDM2 (human MDM2 residues 17-125) (human) (UniProt Q00987). Description: ratio of KD values of FITC-labeled peptides.
The target is the same in test [2]. The test is described as follows: direct binding of the FITC-labeled peptide to MDM2.

GST-MDM2 (human MDM2 residues 17-125) (human), sequence (Q00987 17-125): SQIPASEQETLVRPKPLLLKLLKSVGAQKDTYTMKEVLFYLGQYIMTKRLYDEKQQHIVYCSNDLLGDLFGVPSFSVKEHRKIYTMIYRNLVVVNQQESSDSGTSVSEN

As a reminder, the Kd is the equilibrium constant for the complex coming apart. Read a high Kd as lower affinity. For “peptide 9, Ac-LTFhCHYWhCQLTS-miniPEG-K(FITC)-NH2, stapled with BBA-CPP9”, in test [1], the fold decrease of affinity against peptide 8 turned out to be 8 fold. The substance also displayed a Kd in test [2] of 114 nM.
